Results reported in paper doi:10.1101/2022.06.11.495734 (bioRxiv, 2022).

Legend:
native gel or EMSA = molecular target: the molecule itself; test: native gel or EMSA
non-reducing SDS-PAGE = molecular target: the molecule itself; test: non-reducing SDS-PAGE
[1] = molecular target: the molecule itself; test: reducing SDS-PAGE and immunoblot of parasite lysate
[2] = molecular target: the molecule itself; test: SDS-PAGE after LAFS treatment

B1: recombinant Plasmodium falciparum 3D7 60S stalk ribosomal protein P2, 6x His-tag (natural protein, UniProt O00806 1-112, looked up)
chain: MAMKYVAAYLMCVLGGNENPSTKEVKNVLGAVNADVEDEVLNNFIDSLKGKSCHELITDGLKKLQNIGGGVAAAPAGAAAVETAEAKKEDKKEEKKEEEEEEEDDLGFSLFG
Native gel or EMSA
  stoichiometry N: 4
non-reducing SDS-PAGE
  stoichiometry N: 2

B2: PfP2-HA of transgenic P. falciparum 3D7 parasites (natural protein, Plasmodium falciparum 3D7, UniProt O00806 1-112, looked up)
chain: MAMKYVAAYLMCVLGGNENPSTKEVKNVLGAVNADVEDEVLNNFIDSLKGKSCHELITDGLKKLQNIGGGVAAAPAGAAAVETAEAKKEDKKEEKKEEEEEEEDDLGFSLFG
[1]
  stoichiometry N: 4

B3: rec.PfP2 pre-reduced and alkylated with iodoacetamide (natural protein, Plasmodium falciparum 3D7, UniProt O00806 1-112, looked up)
chain: MAMKYVAAYLMCVLGGNENPSTKEVKNVLGAVNADVEDEVLNNFIDSLKGKSCHELITDGLKKLQNIGGGVAAAPAGAAAVETAEAKKEDKKEEKKEEEEEEEDDLGFSLFG
modifications: all cysteine residues pre-reduced and alkylated with Iodoacetamide (IAA)
[2]
  stoichiometry N: 4

B4: Plasmodium falciparum P2 protein, endogenous in wild type 3D7 parasites (natural protein, UniProt O00806 1-112, looked up)
chain: MAMKYVAAYLMCVLGGNENPSTKEVKNVLGAVNADVEDEVLNNFIDSLKGKSCHELITDGLKKLQNIGGGVAAAPAGAAAVETAEAKKEDKKEEKKEEEEEEEDDLGFSLFG
[1]
  stoichiometry N: 4
